Measured values: IntAct's records for PubMed 21187394

B1: Protein BRASSINOSTEROID … 1 (Arabidopsis thaliana (Mouse-ear cress)), O22476 (parent)
chain: MKTFSSFFLSVTTLFFFSFFSLSFQASPSQSLYREIHQLISFKDVLPDKNLLPDWSSNKNPCTFDGVTCRDDKVTSIDLSSKPLNVGFSAVSSSLLSLTGLESLFLSNSHINGSVSGFKCSASLTSLDLSRNSLSGPVTTLTSLGSCSGLKFLNVSSNTLDFPGKVSGGLKLNSLEVLDLSANSISGANVVGWVLSDGCGELKHLAISGNKISGDVDVSRCVNLEFLDVSSNNFSTGIPFLGDCSALQHLDISGNKLSGDFSRAISTCTELKLLNISSNQFVGPIPPLPLKSLQYLSLAENKFTGEIPDFLSGACDTLTGLDLSGNHFYGAVPPFFGSCSLLESLALSSNNFSGELPMDTLLKMRGLKVLDLSFNEFSGELPESLTNLSASLLTLDLSSNNFSGPILPNLCQNPKNTLQELYLQNNGFTGKIPPTLSNCSELVSLHLSFNYLSGTIPSSLGSLSKLRDLKLWLNMLEGEIPQELMYVKTLETLILDFNDLTGEIPSGLSNCTNLNWISLSNNRLTGEIPKWIGRLENLAILKLSNNSFSGNIPAELGDCRSLIWLDLNTNLFNGTIPAAMFKQSGKIAANFIAGKRYVYIKNDGMKKECHGAGNLLEFQGIRSEQLNRLSTRNPCNITSRVYGGHTSPTFDNNGSMMFLDMSYNMLSGYIPKEIGSMPYLFILNLGHNDISGSIPDEVGDLRGLNILDLSSNKLDGRIPQAMSALTMLTEIDLSNNNLSGPIPEMGQFETFPPAKFLNNPGLCGYPLPRCDPSNADGYAHHQRSHGRRPASLAGSVAMGLLFSFVCIFGLILVGREMRKRRRKKEAELEMYAEGHGNSGDRTANNTNWKLTGVKEALSINLAAFEKPLRKLTFADLLQATNGFHNDSLIGSGGFGDVYKAILKDGSAVAIKKLIHVSGQGDREFMAEMETIGKIKHRNLVPLLGYCKVGDERLLVYEFMKYGSLEDVLHDPKKAGVKLNWSTRRKIAIGSARGLAFLHHNCSPHIIHRDMKSSNVLLDENLEARVSDFGMARLMSAMDTHLSVSTLAGTPGYVPPEYYQSFRCSTKGDVYSYGVVLLELLTGKRPTDSPDFGDNNLVGWVKQHAKLRISDVFDPELMKEDPALEIELLQHLKVAVACLDDRAWRRPTMVQVMAMFKEIQAGSGIDSQSTIRSIEDGGFSTIEMVDMSIKEVPEGKL
partner: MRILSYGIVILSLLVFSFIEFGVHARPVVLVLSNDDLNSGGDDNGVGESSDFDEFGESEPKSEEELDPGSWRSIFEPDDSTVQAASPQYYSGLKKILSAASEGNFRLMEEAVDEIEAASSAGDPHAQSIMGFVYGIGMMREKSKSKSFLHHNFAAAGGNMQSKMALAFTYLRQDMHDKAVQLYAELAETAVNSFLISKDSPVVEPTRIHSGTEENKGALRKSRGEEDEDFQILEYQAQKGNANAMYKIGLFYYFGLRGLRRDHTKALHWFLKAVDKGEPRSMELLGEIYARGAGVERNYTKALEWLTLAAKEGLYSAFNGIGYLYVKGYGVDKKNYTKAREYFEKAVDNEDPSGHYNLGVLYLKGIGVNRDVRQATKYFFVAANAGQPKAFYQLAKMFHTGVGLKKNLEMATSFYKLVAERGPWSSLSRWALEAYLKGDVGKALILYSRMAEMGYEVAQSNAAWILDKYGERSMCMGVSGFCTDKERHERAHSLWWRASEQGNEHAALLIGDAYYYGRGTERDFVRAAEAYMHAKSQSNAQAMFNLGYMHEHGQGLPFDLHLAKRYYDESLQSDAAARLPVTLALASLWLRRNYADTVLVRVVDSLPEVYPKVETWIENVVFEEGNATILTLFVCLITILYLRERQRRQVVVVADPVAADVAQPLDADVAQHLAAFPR

Variants of: B1
Conditions: with hrd3a_arath HRD3A

Variant | effect of a mutation on the interaction
S662F | increasing interaction strength
C69Y | increasing interaction strength
